Measurements from patent US20030153066A1 (University of California, published 2003).

Molecular target: HIV-1 Gag Pr55 (wild-type) (HIV-1, UniProt P03348 1-512, N-terminal myristoylation (reactions with MCoA))
Assay: cell-based or functional assay

B1: WGHP68-Tr1 (other)
chain: MADRLTRIAIVSEDKCKPKKCRQECKKSCPVVKTGKLCIEVSPVAKLAFISEELCIGCGICVKKCPFDAIEIINLPKDLEKDTTHRYGPNTFKLHRLPVPRPGQVLGLVGTNGIGKSTALKVLAGKLKPNLGRFKNPPDWQEILTYFRGSELQNYFTRILEDNLKAIIKPQYVDHIPKAVQGNVGQVLEQKDERDMKNELCVDLELNQVIDRNVGDLSGGELQRFAIAVVAVQSAEIYMFDEPSSYLDVKQRLKAARVIRSLLRSNSYVIVVEHDLSVLDYLSDFICCLYGKPGAYGVVTLPFSVREGINIFLAGFVPTENLRFRDESLTFKIAETQESAEEVATYQRYKYPTMSKTQGNFKLSVVEGEFTDSQIVVM
- amount of HIV-1 Gag protein in the medium of co-transfected Cos-1 cells (virion production): 4.7 fold
